T1: human TL1A extracellular domain with N-terminal HIS and FLAG tag (human, UniProt O95150 72-251)
T1 construct: whole entry named. ~70 kDa fraction purified by gel filtration
T1 sequence: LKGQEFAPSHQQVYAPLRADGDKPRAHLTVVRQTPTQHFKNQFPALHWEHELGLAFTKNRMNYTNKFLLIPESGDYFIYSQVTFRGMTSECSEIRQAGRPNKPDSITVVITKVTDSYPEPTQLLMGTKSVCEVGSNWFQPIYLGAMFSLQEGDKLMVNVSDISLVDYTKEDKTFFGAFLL

T2: human TL1A extracellular domain with N-terminal HIS and FLAG tag (human) (UniProt O95150)
T2 sequence: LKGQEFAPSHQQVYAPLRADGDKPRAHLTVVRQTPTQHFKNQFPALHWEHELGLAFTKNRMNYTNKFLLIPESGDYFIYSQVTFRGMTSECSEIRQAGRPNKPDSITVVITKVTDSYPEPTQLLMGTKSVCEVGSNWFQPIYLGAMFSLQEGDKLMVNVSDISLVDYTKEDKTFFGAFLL

T3: human TL1A extracellular domain with N-terminal HIS and FLAG tag (human, UniProt O95150 72-251)
T3 construct: the whole entry is named; also called TNFSF15
T3 sequence: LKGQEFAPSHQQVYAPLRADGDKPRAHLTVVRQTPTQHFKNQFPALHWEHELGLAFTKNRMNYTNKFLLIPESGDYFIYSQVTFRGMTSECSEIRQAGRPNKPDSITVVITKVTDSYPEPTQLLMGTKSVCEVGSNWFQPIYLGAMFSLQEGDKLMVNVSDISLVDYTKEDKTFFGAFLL


Legend:
[1] = molecular target: T1, human TL1A extracellular domain with …; experiment: SPR run 3; supernatant on Protein A; TL1A 10 ug/mL; timepoint 59
How it was run: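 The capture level was the response change at the end of loading, which varied by run. Antigen response was read before dissociation ended, double-referenced against a reference flow cell and a buffer blank.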

[2] = molecular target: T2, human TL1A extracellular domain with N-terminal HIS and FLAG tag (human); experiment: cell-based or functional assay
[3] = molecular target: T1, human TL1A extracellular domain with …; experiment: SPR run 3; supernatant on Protein A; TL1A 10 ug/mL; timepoint 590
How it was run: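 Double-referenced sensorgrams (reference flow cell and buffer blank subtracted) provided the late-dissociation response for antibodies held by chip-bound Protein A. These antibodies came either as expression supernatant or as Protein A-purified material. The capture amount differed per run and was measured as the RU increase after loading.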

[4] = molecular target: T3, human TL1A extracellular domain with …; experiment: SPR Run 9, antibody on Protein A, TL1A 5 ug/mL, timepoint 44
Source text: (§1) 1.5. Antibody expression and antigen binding as determined by SPR. Using a CM5 sensor chip (GE Healthcare) Protein A (Pierce) was coupled to the chip surface using an amine coupling kit (GE Healthcare). Protein A was coupled on flow cell 1 and 2 (or alternatively 3 and 4) using a BIACORE® T200. […] The amount of supernatant or purified protein (as well as the concentration) injected during the capture stage varied between runs and is specified in the header of the Tables 3-11. At the end of injection of the supernatant or purified antibody the change in response units was measured. This value was reported as Capture Level in Tables 3-11. […] The response units were measured prior to the end of the dissociation phase. […] The sensorgrams were double referenced (flow cell 2 is subtracted from flow cell 1 and a buffer blank). As there were a large number of antibody variants to screen, these were screened across different runs (Tables 3-11). […] A summary of the conditions used in each run is below:
(§2) 2.1. […] In some experiment the antibodies were purified using Protein A chromatography (See 1.4) and purified antibodies were used in BIACORE® (GE Healthcare) experiments.

[5] = molecular target: T3, human TL1A extracellular domain with …; experiment: SPR Run 9, antibody on Protein A, TL1A 5 ug/mL, timepoint 590
Source text: as §1, §2

Binder | TL1A Binding Level (Early) [1] [RU] | Antibody IC50, TL1A induced caspase potency assay in TF-1 cells [2] [ng/mL] | Fold improvement over 320-179, TL1A induced caspase potency assay in TF-1 cells [2] [fold] | TL1A Binding Level (Late) [3] [RU] | TL1A Binding Level (Early) [4] [RU] | TL1A Binding Level (Late) [5] [RU]
320-280 (antibody, human IgG1, name in Kabat numbering, V domains shown, human IgG1, lambda) VH: QVQLVQSGAEVKKPGASVKVSCKASGYTFTSYDINWVRQAPGQGLEWMGWLNPNSGNTGYAQKFQGRVTMTADRSTSTAYMELSSLRSEDTAVYYCAREVPETAAFEYWGQGTLVTVSS VL: QSVLTQPPSVSGAPGQRVTISCTSSSSDIGAGHGVHWYQQLPGTAPKLLIEGYYNRPSGVPDRFSGSKSGTSASLTITGLLPEDEGDYYCQSYDGTLSALFGGGTKLTVLG | 228 | 6 | 3 | 211 |  | 
320-602 (antibody, human IgG1, name in Kabat numbering, V domains shown, full-length human IgG1, lambda) VH: QVQLVQSGAEVKKPGASVKVSCKASGYTFTSYDINWVRQAPGQGLEWMGWLNPNSGYTGYAQKFQGRVTMTADRSTSTAYMELSSLRSEDTAVYYCAREVPETAAFEYWGQGTLVTVSS VL: QSVLTQPPSVSGAPGQRVTISCTSSSSDIGAGQGVHWYQQLPGTAPKLLIEGYYNRPSGVPDRFSGSKSGTSASLTITGLLPEDEGDYYCQSFDGTLSALFGGGTKLTVLG |  |  |  |  | 131 | 125
320-597 (antibody, human IgG1, name in Kabat numbering, V domains shown, full-length human IgG1, lambda) VH: QVQLVQSGAEVKKPGASVKVSCKASGYTFTSYDINWVRQAPGQGLEWMGWLNPNSGNTGYAQKFQGRVTMTADRSTSTAYMELSSLRSEDTAVYYCAREVPETAAFEYWGQGTLVTVSS VL: QSVLTQPPSVSGAPGQRVTISCTSSSSDIGAGQGVHWYQQLPGTAPKLLIEGYYNRPSGVPDRFSGSKSGTSASLTITGLLPEDEGDYYCQSFDGTLSALFGGGTKLTVLG |  |  |  |  | 115 | 105
320-307 (antibody, human IgG1, name in Kabat numbering, V domains shown, human IgG1, lambda) VH: QVQLVQSGAEVKKPGASVKVSCKASGYTFTSYDINWVRQAPGQGLEWMGWLNPNSGNTGYAQKFQGRVTMTADRSTSTAYMELSSLRSEDTAVYYCAREVPETAAFEYWGQGTLVTVSS VL: QSVLTQPPSVSGAPGQRVTISCTSSSSDIGAGLGVLWYQQLPGTAPKLLIEGYYNRPSGVPDRFSGSKSGTSASLTITGLLPEDEGDYYCQSYDGTLSALFGGGTKLTVLG | 216 | 10 | 4 | 200 |  | 
320-599 (antibody, human IgG1, name in Kabat numbering, V domains shown, full-length human IgG1, lambda) VH: QVQLVQSGAEVKKPGASVKVSCKASGYTFTSYDINWVRQAPGQGLEWMGWLNPNSGNTGYAQKFQGRVTMTADRSTSTAYMELSSLRSEDTAVYYCAREVPETAAFEYWGQGTLVTVSS VL: QSVLTQPPSVSGAPGQRVTISCTSSSSDIGAGSGVHWYQQLPGTAPKLLIEGYYNRPSGVPDRFSGSKSGTSASLTITGLLPEDEGDYYCQSFDGTLSALFGGGTKLTVLG |  |  |  |  | 113 | 103
320-600 (antibody, human IgG1, name in Kabat numbering, V domains shown, full-length human IgG1, lambda) VH: QVQLVQSGAEVKKPGASVKVSCKASGYTFTSYDINWVRQAPGQGLEWMGWLNPNSGNTGYAQKFQGRVTMTADRSTSTAYMELSSLRSEDTAVYYCAREVPETAAFEYWGQGTLVTVSS VL: QSVLTQPPSVSGAPGQRVTISCTSSSSDIGAALGVHWYQQLPGTAPKLLIEGYYNRPSGVPDRFSGSKSGTSASLTITGLLPEDEGDYYCQSFDGTLSALFGGGTKLTVLG |  |  |  |  | 111 | 104
320-612 (antibody, human IgG1, name in Kabat numbering, V domains shown, full-length human IgG1, lambda) VH: QVQLVQSGAEVKKPGASVKVSCKASGYTFTSYDINWVRQAPGQGLEWMGWLNPNSGNTGYAQKFQGRVTMTADRSTSTAYMELSSLRSEDTAVYYCAREVPETAAFEYWGQGTLVTVSS VL: QSVLTQPPSVSGAPGQRVTISCTSSSSDIGAGLGVHWYQQLPGTAPKLLIEGYYNRPSGVPDRFSGSKSGTSASLTITGLLPEDEGDYYCQSWDYTLSALFGGGTKLTVLG |  |  |  |  | 126 | 120
320-302 (antibody, human IgG1, name in Kabat numbering, V domains shown, human IgG1, lambda) VH: QVQLVQSGAEVKKPGASVKVSCKASGYTFTSYDINWVRQAPGQGLEWMGWLNPNSGNTGYAQKFQGRVTMTADRSTSTAYMELSSLRSEDTAVYYCAREVPETAAFEYWGQGTLVTVSS VL: QSVLTQPPSVSGAPGQRVTISCTSSSSDIGAGLGVAWYQQLPGTAPKLLIEGYYNRPSGVPDRFSGSKSGTSASLTITGLLPEDEGDYYCQSYDGTLSALFGGGTKLTVLG | 99 | 10 | 2 | 74 |  | 
320-605 (antibody, human IgG1, name in Kabat numbering, V domains shown, full-length human IgG1, lambda) VH: QVQLVQSGAEVKKPGASVKVSCKASGYTFTSYDINWVRQAPGQGLEWMGWLNPNSGYTGYAQKFQGRVTMTADRSTSTAYMELSSLRSEDTAVYYCAREVPETAAFEYWGQGTLVTVSS VL: QSVLTQPPSVSGAPGQRVTISCTSSSSDIGAALGVHWYQQLPGTAPKLLIEGYYNRPSGVPDRFSGSKSGTSASLTITGLLPEDEGDYYCQSFDGTLSALFGGGTKLTVLG |  |  |  |  | 125 | 120
320-596 (antibody, human IgG1, name in Kabat numbering, V domains shown, full-length human IgG1, lambda) VH: QVQLVQSGAEVKKPGASVKVSCKASGYTFTSYDINWVRQAPGQGLEWMGWLNPNSGNTGYAQKFQGRVTMTADRSTSTAYMELSSLRSEDTAVYYCAREVPETAAFEYWGQGTLVTVSS VL: QSVLTQPPSVSGAPGQRVTISCTSSSSDIGAGLGVHWYQQLPGTAPKLLIEGYYNRPSGVPDRFSGSKSGTSASLTITGLLPEDEGDYYCQSFDGTLSALFGGGTKLTVLG |  |  |  |  | 95 | 85
320-297 (antibody, human IgG1, name in Kabat numbering, V domains shown, human IgG1, lambda) VH: QVQLVQSGAEVKKPGASVKVSCKASGYTFTSYDINWVRQAPGQGLEWMGWLNPNSGNTGYAQKFQGRVTMTADRSTSTAYMELSSLRSEDTAVYYCAREVPETAAFEYWGQGTLVTVSS VL: QSVLTQPPSVSGAPGQRVTISCTSSSSDIGAGLGHHWYQQLPGTAPKLLIEGYYNRPSGVPDRFSGSKSGTSASLTITGLLPEDEGDYYCQSYDGTLSALFGGGTKLTVLG | 95 | 5 | 4 | 77 |  | 
320-603 (antibody, human IgG1, name in Kabat numbering, V domains shown, full-length human IgG1, lambda) VH: QVQLVQSGAEVKKPGASVKVSCKASGYTFTSYDINWVRQAPGQGLEWMGWLNPNSGYTGYAQKFQGRVTMTADRSTSTAYMELSSLRSEDTAVYYCAREVPETAAFEYWGQGTLVTVSS VL: QSVLTQPPSVSGAPGQRVTISCTSSSSDIGAGLGVLWYQQLPGTAPKLLIEGYYNRPSGVPDRFSGSKSGTSASLTITGLLPEDEGDYYCQSFDGTLSALFGGGTKLTVLG |  |  |  |  | 126 | 118
320-598 (antibody, human IgG1, name in Kabat numbering, V domains shown, full-length human IgG1, lambda) VH: QVQLVQSGAEVKKPGASVKVSCKASGYTFTSYDINWVRQAPGQGLEWMGWLNPNSGNTGYAQKFQGRVTMTADRSTSTAYMELSSLRSEDTAVYYCAREVPETAAFEYWGQGTLVTVSS VL: QSVLTQPPSVSGAPGQRVTISCTSSSSDIGAGLGVLWYQQLPGTAPKLLIEGYYNRPSGVPDRFSGSKSGTSASLTITGLLPEDEGDYYCQSFDGTLSALFGGGTKLTVLG |  |  |  |  | 112 | 101

— patent publication US20170081400A1 (CEPHALON, published 2017)
